Starred links: 1 amine or outer side, 2 acyl side, 3 side chain; linkers in the order of their positions; H or OH if unused. Positions of bridges follow the written chain, without caps; N, C: chain ends. Non-standard residues stand in square brackets, D forms with d. Primed or numbered codes have the meaning given here. *: point of attachment. PyrS2(3) = (S)-3-amino-1-((pent-4-en-1-yloxy)carbonyl)pyrrolidine-3-carboxylic acid, stapling residue, C=CCCCOC(=O)N1CC[C@@](N[*:1])(C(=O)[*:2])C1; PyrS2″ = (S)-3-amino-1-((pent-4-en-1-yloxy)carbonyl)pyrrolidine-3-carboxylic acid (stapling residue), C=CCCCOC(=O)N1CC[C@@](N[*:1])(C(=O)[*:2])C1; B5(24) = 2-amino-2-(pent-4-en-1-yl)hept-6-enoic acid, 2,2-bis(4-pentenyl)glycine (stitching residue), C=CCCCC(CCCC=C)(N[*:1])C(=O)[*:2]; B5(4) = 2,2-bis(4-pentenyl)glycine = 2-amino-2-(pent-4-en-1-yl)hept-6-enoic acid (stitching residue), C=CCCCC(CCCC=C)(N[*:1])C(=O)[*:2]; B5(5) = 2,2-bis(4-pentenyl)glycine, 2-amino-2-(pent-4-en-1-yl)hept-6-enoic acid (stitching residue), C=CCCCC(CCCC=C)(N[*:1])C(=O)[*:2]; B5(21) = 2-amino-2-(pent-4-en-1-yl)hept-6-enoic acid, bis(4-pentenyl)glycine (stitching residue), C=CCCCC(CCCC=C)(N[*:1])C(=O)[*:2]; TfeGA = (S)-2-amino-3-((carboxymethyl)(2,2,2-trifluoroethyl)amino)propanoic acid, O=C([C@H](CN(CC(=O)[*:3])CC(F)(F)F)N[*:1])[*:2]; PyrS2 = (S)-3-amino-1-((pent-4-en-1-yloxy)carbonyl)pyrrolidine-3-carboxylic acid, C=CCCCOC(=O)N1CC[C@@](N[*:1])(C(=O)[*:2])C1; PyrS3 = (S)-3-amino-1-((hex-5-en-1-yloxy)carbonyl)pyrrolidine-3-carboxylic acid, C=CCCCCOC(=O)N1CC[C@@](N[*:1])(C(=O)[*:2])C1; B5(13) = 2-amino-2-(pent-4-en-1-yl)hept-6-enoic acid (two alkene chains), C=CCCCC(CCCC=C)(N[*:1])C(=O)[*:2]; B5″ = 2,2-bis(4-pentenyl)glycine, stitching residue, C=CCCCC(CCCC=C)(N[*:1])C(=O)[*:2]; mPEG2 = N-terminal 3-(2-methoxyethoxy)propanoic acid, COCCOCCC(=O)*; Phe(2-Br) = N[C@@H](Cc1ccccc1Br)C(=O)O; Phe(2-CN) = N#Cc1ccccc1C[C@H](N)C(=O)O; Phe(2-Cl) = N[C@@H](Cc1ccccc1Cl)C(=O)O; Bta = N[C@@H](Cc1csc2ccccc12)C(=O)O; αAllylPro = C=CC[C@@]1(C(=O)O)CCCN1; tBuAla = CC(C)(C)C[C@H](N)C(=O)O; 3Thi = N[C@@H](Cc1ccsc1)C(=O)O; S8 = C=CCCCCCC[C@](C)(N)C(=O)O; Thr(ol) = C[C@@H](O)[C@H](N)CO; Alaol = C[C@@H](CO)N*; Ms = CS(=O)(=O)*
T1: B-cat-Halo (UniProt P35222 1-781)
T1 sequence (looked up): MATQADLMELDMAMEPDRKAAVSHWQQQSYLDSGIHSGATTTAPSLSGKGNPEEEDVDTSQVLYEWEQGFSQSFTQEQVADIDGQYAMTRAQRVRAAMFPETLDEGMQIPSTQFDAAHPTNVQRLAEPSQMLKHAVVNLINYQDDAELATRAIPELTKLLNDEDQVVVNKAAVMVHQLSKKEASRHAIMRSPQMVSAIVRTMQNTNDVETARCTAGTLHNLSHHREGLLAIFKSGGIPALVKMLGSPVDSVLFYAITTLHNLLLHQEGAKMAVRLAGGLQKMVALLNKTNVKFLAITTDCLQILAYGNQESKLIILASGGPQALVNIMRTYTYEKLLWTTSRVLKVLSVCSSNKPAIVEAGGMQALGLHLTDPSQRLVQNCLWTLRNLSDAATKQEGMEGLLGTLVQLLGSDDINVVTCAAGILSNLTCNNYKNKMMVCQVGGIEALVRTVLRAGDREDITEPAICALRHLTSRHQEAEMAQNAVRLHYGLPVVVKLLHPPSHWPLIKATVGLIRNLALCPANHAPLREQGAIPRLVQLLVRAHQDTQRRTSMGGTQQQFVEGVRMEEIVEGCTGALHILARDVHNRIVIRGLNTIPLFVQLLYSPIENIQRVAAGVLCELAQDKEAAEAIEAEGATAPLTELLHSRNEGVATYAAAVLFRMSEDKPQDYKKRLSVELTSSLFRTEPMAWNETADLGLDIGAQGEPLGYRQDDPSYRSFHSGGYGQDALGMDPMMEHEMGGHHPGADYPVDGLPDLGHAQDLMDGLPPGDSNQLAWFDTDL

T2: B-cat-Halo (UniProt P35222 1-781)
T2 sequence (looked up): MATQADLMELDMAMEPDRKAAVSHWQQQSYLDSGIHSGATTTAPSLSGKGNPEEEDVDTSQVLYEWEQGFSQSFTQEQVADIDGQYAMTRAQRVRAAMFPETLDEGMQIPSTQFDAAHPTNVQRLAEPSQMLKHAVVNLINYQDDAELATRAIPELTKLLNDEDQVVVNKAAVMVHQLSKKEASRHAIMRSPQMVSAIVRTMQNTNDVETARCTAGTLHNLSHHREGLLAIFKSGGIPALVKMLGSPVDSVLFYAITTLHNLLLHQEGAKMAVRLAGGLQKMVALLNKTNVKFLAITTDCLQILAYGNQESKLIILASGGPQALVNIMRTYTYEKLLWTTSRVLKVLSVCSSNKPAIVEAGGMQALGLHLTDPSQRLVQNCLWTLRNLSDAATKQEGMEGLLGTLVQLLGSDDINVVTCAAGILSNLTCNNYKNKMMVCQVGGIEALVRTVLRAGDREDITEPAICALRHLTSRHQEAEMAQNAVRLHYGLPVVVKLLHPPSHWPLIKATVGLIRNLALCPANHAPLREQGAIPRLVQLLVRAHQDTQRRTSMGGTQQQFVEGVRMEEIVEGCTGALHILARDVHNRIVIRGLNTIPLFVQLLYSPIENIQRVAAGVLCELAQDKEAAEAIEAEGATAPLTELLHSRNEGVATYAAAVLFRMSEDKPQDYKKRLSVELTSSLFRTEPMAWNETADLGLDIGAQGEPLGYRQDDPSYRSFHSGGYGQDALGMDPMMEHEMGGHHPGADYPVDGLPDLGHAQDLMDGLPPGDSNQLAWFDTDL

T3: full-length beta-Catenin (Uniprot ID P35222) (Homo sapiens (Human), UniProt P35222 1-781)
T3 construct: The assay protocol says full-length beta-Catenin (Uniprot ID P35222); tags are not described; also called bCat; B-Catenin
T3 sequence: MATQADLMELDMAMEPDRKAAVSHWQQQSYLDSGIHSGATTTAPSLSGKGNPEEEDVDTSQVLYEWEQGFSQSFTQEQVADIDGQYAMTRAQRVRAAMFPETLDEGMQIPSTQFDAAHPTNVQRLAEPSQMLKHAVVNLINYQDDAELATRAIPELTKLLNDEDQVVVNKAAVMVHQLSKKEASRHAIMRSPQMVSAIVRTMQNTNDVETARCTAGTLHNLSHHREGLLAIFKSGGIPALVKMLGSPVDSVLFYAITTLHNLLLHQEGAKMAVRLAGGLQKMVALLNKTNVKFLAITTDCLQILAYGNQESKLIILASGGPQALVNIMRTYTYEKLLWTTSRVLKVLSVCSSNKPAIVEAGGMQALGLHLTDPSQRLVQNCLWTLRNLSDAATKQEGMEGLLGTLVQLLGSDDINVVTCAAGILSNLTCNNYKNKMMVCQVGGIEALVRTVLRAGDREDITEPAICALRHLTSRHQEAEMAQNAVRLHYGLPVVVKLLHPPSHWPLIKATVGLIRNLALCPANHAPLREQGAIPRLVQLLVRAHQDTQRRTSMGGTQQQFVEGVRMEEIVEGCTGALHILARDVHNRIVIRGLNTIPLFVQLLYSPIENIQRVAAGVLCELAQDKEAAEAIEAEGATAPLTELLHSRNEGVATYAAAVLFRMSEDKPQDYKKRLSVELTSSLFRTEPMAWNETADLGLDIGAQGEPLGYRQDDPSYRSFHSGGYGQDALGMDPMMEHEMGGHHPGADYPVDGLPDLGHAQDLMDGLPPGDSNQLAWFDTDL


target: T1, B-cat-Halo; assay: cell-based or functional assay

Row | Binder | NanoBRET Abs IC50
1 | Ac-[αAllylPro]D[tBuAla][B5(13)]DDAAFN[PyrS2]F[Bta]H-NH2 (staple 1-4, 4-11) [I-777] | 19.8 µM
2 | Ac-[αAllylPro]D[tBuAla][B5(13)]DDAAFN[PyrS3][3Thi][Bta]H-NH2 (staple 1-4, 4-11) [I-775] | > 20 µM
3 | Ac-[αAllylPro]D[tBuAla][B5(13)]DDAAFN[PyrS3][3Thi][Bta]H-NH2 (staple 1-4, 4-11) [I-776] | 45.7 µM

target: T2, B-cat-Halo; assay: cell-based or functional assay

Row | Binder | NanoBRET Abs IC50
4 | Ms-[αAllylPro]D[tBuAla][B5″]DDAAFN[PyrS2(3)][3Thi][Bta]Q-NH2 (staple 1-4, 4-11; not fully specified; printed as MeSO2-PL3-Asp-Npg-B5-Asp-Asp-Ala-Ala-Phe-Asn-PyrS2-3Thi-BztA-Gln-NH2) [I-1218] | > 20 µM
5 | Ac-[αAllylPro]D[tBuAla][B5(4)]DDAAFL[PyrS2″][Phe(2-Cl)][Bta]-Alaol (staple 1-4, 4-11) [I-1250] | > 20 µM
6 | Ac-[αAllylPro]D[tBuAla][B5(4)]DDAAFL[PyrS2″][Phe(2-Cl)][Bta][Thr(ol)] (staple 1-4, 4-11) [I-1249] | 25.2 µM
7 | Ac-[αAllylPro]D[tBuAla][B5″]DDAAFL[PyrS2(3)][Phe(2-CN)][Bta]Q-NH2 (staple 1-4, 4-11) [I-1203] | 10 µM
8 | mPEG2-[αAllylPro]D[tBuAla][B5(5)]DDAAFN[PyrS2″][Phe(2-Cl)][Bta][dT]-NH2 (staple 1-4, 4-11) [I-1253] | > 20 µM
9 | Ac-[αAllylPro]D[tBuAla][B5″]NDAAFL[PyrS2(3)][3Thi][Bta]Q-NH2 (staple 1-4, 4-11) [I-1207] | 7.5 µM
10 | Ac-[αAllylPro]D[tBuAla][B5(4)]DDAAFL[PyrS2″][Phe(2-Cl)][Bta]Q-NHEt (staple 1-4, 4-11) [I-1248] | 29.7 µM
11 | Ms-[αAllylPro]D[tBuAla][B5″]D[TfeGA]AAFN[PyrS2(3)][3Thi][Bta]Q-NH2 (staple 1-4, 4-11; not fully specified) [I-1219] | > 20 µM
12 | Ac-[αAllylPro]D[tBuAla][B5″]NDAAFN[PyrS2(3)][3Thi][Bta]Q-NH2 (staple 1-4, 4-11) [I-1206] | 27.8 µM
13 | Ac-[αAllylPro]N[tBuAla][B5(4)]DDAAFL[PyrS2″][3Thi][Bta]Q-NH2 (staple 1-4, 4-11) [I-1221] | 23.4 µM
14 | Ac-[αAllylPro]N[tBuAla][B5(4)]DDAAFN[PyrS2″][3Thi][Bta]Q-NH2 (staple 1-4, 4-11) [I-1220] | 17.3 µM

target: T3, full-length beta-Catenin (Uniprot ID …); assay: fluorescence polarization competition: full-length beta-catenin + 5FAM-TCF4(10-53) probe, peptide titrated
Method: The plate was incubated protected from light for 60 minutes at 20° C. prior to read. Reads were performed on a CLARIOstar plate reader (BMG Labtech) in duplicate, and data were fitted to a 1:1 binding model with hill slope using an in-house script. All provided concentrations are final concentrations.

Row | Binder | EC50
15 | Ac-[αAllylPro]DA[B5(24)]DEAAFN[S8][Phe(2-Br)][Bta]Q-NH2 (staple 1-4, 4-11, Stapled (stitched) peptide with non-natural residues) [I-436] | 0.056 µM
16 | Ac-[αAllylPro]DA[B5(21)]DEAAFN[PyrS2″]F[Bta]Q-NH2 (staple 1-4, 4-11, Stapled (stitched) peptide with non-natural residues) [I-462] | 0.028 µM
